System: CCCCCCCCCCCCCCCC(=O)SCCNC(=O)CCNC(=O)[C@H](O)C(C)(C)COP(=O)(O)OP(=O)(O)OC[C@H]1O[C@@H](n2cnc3c(N)ncnc32)[C@H](O)[C@@H]1OP(=O)(O)O
Test: purified protein

Question: With zDHHC9 (Homo sapiens) as the substance, how does the Km read?
Answer: 45 ± 4 µM

Source: publication PMC6445550
